According to US12156889B2, “Methods of administering mesenchymal stem cells activated by cytokines for enhancing immunosuppression” (Rutgers, The State University of New Jersey, priority 2012, dated 2024):

System: T cell hybridoma A1.1 cells
Assay: T cell hybridoma A1.1 proliferation in co-culture with MSCs
Assay type: cell-based, mouse
Procedure: FIG. 7. […] MSC cells and T-cell hybridoma A1.1 cell line were co-cultured at a ratio of 1:20. The co-cultures were supplemented with IFNγ+ TNF α, or IL-17A+IFNγ+TNFα. Cell proliferation was measured by the cell density indicated by O.D. 570 nm.
FIGS. 9A, 9B, 9C, 9D, 9E, 9F and 9G. (FIG. 9A). Cloned MSCs were first treated with the indicated combinations of recombinant cytokines IFNγ, TNFα, IL-17A (2 ng/ml each) for 12 hr, then cocultured with CD4^+ T cell blasts at a 1:20 ratio (MSC:T cells), and proliferation was assessed by 3H-thymidine incorporation after an additional 12 hr. (FIG. 9B). The mRNA expression of IL-17 receptor family members in MSCs or Raw 264.7 (Macrophages) were examined by RT-PCR. NC: No RT. (FIG. 9C). Surface expression of IL-17RA was detected by immunofluoresence or flow cytometry in cloned MSCs. (FIGS. 9D and 9E). MSCs were first treated with IFNγ and TNFα with or without IL-17A (10 ng/ml), IFNγ and TNFα were supplemented at different cytokine concentrations, for 12 hr, and then cocultured with CD4^+ T cell blasts (FIG. 9D) or T cell hybridoma A1.1 cells (FIG. 9E) at a ratio of 1:20 for 12 hr. T cell proliferation was measured by 3H-Tdr incorporation. (FIG. 9F). MSCs were first treated with IFNγ and TNFα (2 ng/ml) with graded concentrations of IL-17A, for 12 hr, and then cocultured with T cell hybridoma A1.1 cells at a ratio of 1:10 for 12 hr. T cell proliferation was measured by 3H-thymidine incorporation. (FIG. 9G). MSCs were cocultured with fresh C57BL/6 splenocytes plus anti-CD3, anti-CD28, and antibodies against IL-17A, at a 1:20 or 1:40 ratio (MSCs:splenocytes), for 48 hr, and then cell proliferation was assessed by 3H-thymidine incorporation. Proliferation values represent means±SEM of three wells from a representative of three experiments.
FIGS. 11A, 11B, 11C and 11D. (FIG. 11A) MSCs with Act1 knockdown or control were treated with IL-17A for different time and the phosphorylation levels of IκBα, ERK, p65, JNK were assessed by Western Blot. (FIG. 11B) MSCs with Act1 knockdown or control were treated with IFNγ and TNFα with or without IL-17A (all cytokines supplemented at 5 ng/ml) the protein levels of iNOS and Act1 were assessed by Western Blot. (FIG. 11C) MSCs (Act1 knockdown or control) were treated with different cytokines 12 hr, and iNOS expression was measured by quantitative RT-PCR. mRNA expression values are means±SEM. (FIG. 11D) MSCs (Act1 knockdown or control) were first treated with IFNγ and TNFα with or without IL-17A (all cytokines supplemented at 5 ng/ml) for 12 hr, and then cocultured with T cell hybridoma A1.1 cells at a ratio of 1:10 for 12 hr. T cell proliferation was measured by 3H-Tdr incorporation, taking the proliferation level of A1.1 alone as 100%.
FIGS. 14A and 14B. (FIG. 14A). WT MSCs or auf1^−/− MSCs were first treated with IFNγ and TNFα with or without IL-17A (all cytokines supplemented at 5 ng/ml) for 12 hr, and then cocultured with T cell hybridoma A1.1 cells at a ratio of 1:10 for 12 hr. T cell proliferation was measured by 3H-Tdr incorporation, taking the proliferation level of A1.1 alone as 100%. (FIG. 14B). WT MSCs or auf1^−/− MSCs were first treated with IFNγ and TNFα with or without IL-17A (10 ng/ml), IFNγ and TNFα were supplemented at different cytokine concentrations, for 12 hr, and then cocultured with T cell hybridoma A1.1 cells at a ratio of 1:10 for 12 hr. T cell proliferation was measured by 3H-Tdr incorporation, taking the proliferation level of A1.1 alone as 100%. […]

B1: IL-17A: recombinant mouse interleukin 17A (protein)
chain: AAIIPQSSACPNTEAKDFLQNVKVNLKVFNSLGAKVSSRRPSDYLNRSTSPWTLHRNEDPDRYPSVIWEAQCRHQRCVNAEGKLDHHMNSVLIQQEILVLKREPESCPFTFRVEKMLVGVGCTCVASIVRQAA
enhancement of immunosuppression in absence of Act1 (5 ng/ml, A1.1 1:10): not seen
IL-17A concentration sufficient to elicit a dramatic decrease in T cell proliferation (IFNγ and TNFα 2 ng/ml each, 12 hr, A1.1 1:10): 0.5 ng/mL
T-cell proliferation in MSC-T cell co-culture (MSC:A1.1 1:20, O.D. 570 nm): enhanced the suppression
immunosuppressive activity of wild-type MSCs (with IFNγ+TNFα, A1.1 1:10): increased the immunosuppressive activity
immunosuppressive effect of auf1−/− MSCs (with IFNγ+TNFα, A1.1 1:10): did not further enhance
